B1: SPINDLY (SPY): S21A (protein)
parent chain: MVGLEDDTERERSPVVENGFSNGSRSSSSSAGVLSPSRKVTQGNDTLSYANILRARNKFADALALYEAMLEKDSKNVEAHIGKGICLQTQNKGNLAFDCFSEAIRLDPHNACALTHCGILHKEEGRLVEAAESYQKALMADASYKPAAECLAIVLTDLGTSLKLAGNTQEGIQKYYEALKIDPHYAPAYYNLGVVYSEMMQYDNALSCYEKAALERPMYAEAYCNMGVIYKNRGDLEMAITCYERCLAVSPNFEIAKNNMAIALTDLGTKVKLEGDVTQGVAYYKKALYYNWHYADAMYNLGVAYGEMLKFDMAIVFYELAFHFNPHCAEACNNLGVLYKDRDNLDKAVECYQMALSIKPNFAQSLNNLGVVYTVQGKMDAAASMIEKAILANPTYAEAFNNLGVLYRDAGNITMAIDAYEECLKIDPDSRNAGQNRLLAMNYINEGLDDKLFEAHRDWGWRFTRLHPQYTSWDNLKDPERPITIGYISPDFFTHSVSYFIEAPLTHHDYTKYKVVVYSAVVKADAKTYRFRDKVLKKGGVWKDIYGIDEKKIASMVREDKIDILVELTGHTANNKLGTMACRPAPVQVTWIGYPNTTGLPTVDYRITDSLADPPDTKQKQVEELVRLPDCFLCYTPSPEAGPVCPTPALSNGFVTFGSFNNLAKITPKVLQVWARILCAVPNSRLVVKCKPFCCDSIRQRFLTTLEQLGLESKRVDLLPLILFNHDHMQAYSLMDISLDTFPYAGTTTTCESLYMGVPCVTMAGSVHAHNVGVSLLTKVGLGHLVAKNEDEYVQLSVDLASDVTALSKLRMSLRDLMAGSPVCNGPSFAVGLESAYRNMWKKYCKGEVPSLRRMEMLQKEVHDDPLISKDLGPSRVSVTGEATPSLKANGSAPVPSSLPTQSPQLSKRMDSTS
B2: SPINDLY (SPY): S24A (protein)
parent chain: MVGLEDDTERERSPVVENGFSNGSRSSSSSAGVLSPSRKVTQGNDTLSYANILRARNKFADALALYEAMLEKDSKNVEAHIGKGICLQTQNKGNLAFDCFSEAIRLDPHNACALTHCGILHKEEGRLVEAAESYQKALMADASYKPAAECLAIVLTDLGTSLKLAGNTQEGIQKYYEALKIDPHYAPAYYNLGVVYSEMMQYDNALSCYEKAALERPMYAEAYCNMGVIYKNRGDLEMAITCYERCLAVSPNFEIAKNNMAIALTDLGTKVKLEGDVTQGVAYYKKALYYNWHYADAMYNLGVAYGEMLKFDMAIVFYELAFHFNPHCAEACNNLGVLYKDRDNLDKAVECYQMALSIKPNFAQSLNNLGVVYTVQGKMDAAASMIEKAILANPTYAEAFNNLGVLYRDAGNITMAIDAYEECLKIDPDSRNAGQNRLLAMNYINEGLDDKLFEAHRDWGWRFTRLHPQYTSWDNLKDPERPITIGYISPDFFTHSVSYFIEAPLTHHDYTKYKVVVYSAVVKADAKTYRFRDKVLKKGGVWKDIYGIDEKKIASMVREDKIDILVELTGHTANNKLGTMACRPAPVQVTWIGYPNTTGLPTVDYRITDSLADPPDTKQKQVEELVRLPDCFLCYTPSPEAGPVCPTPALSNGFVTFGSFNNLAKITPKVLQVWARILCAVPNSRLVVKCKPFCCDSIRQRFLTTLEQLGLESKRVDLLPLILFNHDHMQAYSLMDISLDTFPYAGTTTTCESLYMGVPCVTMAGSVHAHNVGVSLLTKVGLGHLVAKNEDEYVQLSVDLASDVTALSKLRMSLRDLMAGSPVCNGPSFAVGLESAYRNMWKKYCKGEVPSLRRMEMLQKEVHDDPLISKDLGPSRVSVTGEATPSLKANGSAPVPSSLPTQSPQLSKRMDSTS
B3: SPINDLY (SPY): self-fucosylated SPY (protein)
parent chain: MVGLEDDTERERSPVVENGFSNGSRSSSSSAGVLSPSRKVTQGNDTLSYANILRARNKFADALALYEAMLEKDSKNVEAHIGKGICLQTQNKGNLAFDCFSEAIRLDPHNACALTHCGILHKEEGRLVEAAESYQKALMADASYKPAAECLAIVLTDLGTSLKLAGNTQEGIQKYYEALKIDPHYAPAYYNLGVVYSEMMQYDNALSCYEKAALERPMYAEAYCNMGVIYKNRGDLEMAITCYERCLAVSPNFEIAKNNMAIALTDLGTKVKLEGDVTQGVAYYKKALYYNWHYADAMYNLGVAYGEMLKFDMAIVFYELAFHFNPHCAEACNNLGVLYKDRDNLDKAVECYQMALSIKPNFAQSLNNLGVVYTVQGKMDAAASMIEKAILANPTYAEAFNNLGVLYRDAGNITMAIDAYEECLKIDPDSRNAGQNRLLAMNYINEGLDDKLFEAHRDWGWRFTRLHPQYTSWDNLKDPERPITIGYISPDFFTHSVSYFIEAPLTHHDYTKYKVVVYSAVVKADAKTYRFRDKVLKKGGVWKDIYGIDEKKIASMVREDKIDILVELTGHTANNKLGTMACRPAPVQVTWIGYPNTTGLPTVDYRITDSLADPPDTKQKQVEELVRLPDCFLCYTPSPEAGPVCPTPALSNGFVTFGSFNNLAKITPKVLQVWARILCAVPNSRLVVKCKPFCCDSIRQRFLTTLEQLGLESKRVDLLPLILFNHDHMQAYSLMDISLDTFPYAGTTTTCESLYMGVPCVTMAGSVHAHNVGVSLLTKVGLGHLVAKNEDEYVQLSVDLASDVTALSKLRMSLRDLMAGSPVCNGPSFAVGLESAYRNMWKKYCKGEVPSLRRMEMLQKEVHDDPLISKDLGPSRVSVTGEATPSLKANGSAPVPSSLPTQSPQLSKRMDSTS
B4: Arabidopsis SPINDLY (SPY), wild type, full-length (enzyme, Arabidopsis thaliana, UniProt Q96301 1-914, looked up)
chain: MVGLEDDTERERSPVVENGFSNGSRSSSSSAGVLSPSRKVTQGNDTLSYANILRARNKFADALALYEAMLEKDSKNVEAHIGKGICLQTQNKGNLAFDCFSEAIRLDPHNACALTHCGILHKEEGRLVEAAESYQKALMADASYKPAAECLAIVLTDLGTSLKLAGNTQEGIQKYYEALKIDPHYAPAYYNLGVVYSEMMQYDNALSCYEKAALERPMYAEAYCNMGVIYKNRGDLEMAITCYERCLAVSPNFEIAKNNMAIALTDLGTKVKLEGDVTQGVAYYKKALYYNWHYADAMYNLGVAYGEMLKFDMAIVFYELAFHFNPHCAEACNNLGVLYKDRDNLDKAVECYQMALSIKPNFAQSLNNLGVVYTVQGKMDAAASMIEKAILANPTYAEAFNNLGVLYRDAGNITMAIDAYEECLKIDPDSRNAGQNRLLAMNYINEGLDDKLFEAHRDWGWRFTRLHPQYTSWDNLKDPERPITIGYISPDFFTHSVSYFIEAPLTHHDYTKYKVVVYSAVVKADAKTYRFRDKVLKKGGVWKDIYGIDEKKIASMVREDKIDILVELTGHTANNKLGTMACRPAPVQVTWIGYPNTTGLPTVDYRITDSLADPPDTKQKQVEELVRLPDCFLCYTPSPEAGPVCPTPALSNGFVTFGSFNNLAKITPKVLQVWARILCAVPNSRLVVKCKPFCCDSIRQRFLTTLEQLGLESKRVDLLPLILFNHDHMQAYSLMDISLDTFPYAGTTTTCESLYMGVPCVTMAGSVHAHNVGVSLLTKVGLGHLVAKNEDEYVQLSVDLASDVTALSKLRMSLRDLMAGSPVCNGPSFAVGLESAYRNMWKKYCKGEVPSLRRMEMLQKEVHDDPLISKDLGPSRVSVTGEATPSLKANGSAPVPSSLPTQSPQLSKRMDSTS
notes: Dimer in solution by SEC-MALS; also called wild type SPY; SPY^WT; not shown: His6, N-terminal, cleaved; SUMO, N-terminal, cleaved
B5: engineered Arabidopsis SPY^C645S (enzyme, Arabidopsis thaliana, UniProt Q96301 1-914, looked up)
chain: MVGLEDDTERERSPVVENGFSNGSRSSSSSAGVLSPSRKVTQGNDTLSYANILRARNKFADALALYEAMLEKDSKNVEAHIGKGICLQTQNKGNLAFDCFSEAIRLDPHNACALTHCGILHKEEGRLVEAAESYQKALMADASYKPAAECLAIVLTDLGTSLKLAGNTQEGIQKYYEALKIDPHYAPAYYNLGVVYSEMMQYDNALSCYEKAALERPMYAEAYCNMGVIYKNRGDLEMAITCYERCLAVSPNFEIAKNNMAIALTDLGTKVKLEGDVTQGVAYYKKALYYNWHYADAMYNLGVAYGEMLKFDMAIVFYELAFHFNPHCAEACNNLGVLYKDRDNLDKAVECYQMALSIKPNFAQSLNNLGVVYTVQGKMDAAASMIEKAILANPTYAEAFNNLGVLYRDAGNITMAIDAYEECLKIDPDSRNAGQNRLLAMNYINEGLDDKLFEAHRDWGWRFTRLHPQYTSWDNLKDPERPITIGYISPDFFTHSVSYFIEAPLTHHDYTKYKVVVYSAVVKADAKTYRFRDKVLKKGGVWKDIYGIDEKKIASMVREDKIDILVELTGHTANNKLGTMACRPAPVQVTWIGYPNTTGLPTVDYRITDSLADPPDTKQKQVEELVRLPDCFLCYTPSPEAGPVSPTPALSNGFVTFGSFNNLAKITPKVLQVWARILCAVPNSRLVVKCKPFCCDSIRQRFLTTLEQLGLESKRVDLLPLILFNHDHMQAYSLMDISLDTFPYAGTTTTCESLYMGVPCVTMAGSVHAHNVGVSLLTKVGLGHLVAKNEDEYVQLSVDLASDVTALSKLRMSLRDLMAGSPVCNGPSFAVGLESAYRNMWKKYCKGEVPSLRRMEMLQKEVHDDPLISKDLGPSRVSVTGEATPSLKANGSAPVPSSLPTQSPQLSKRMDSTS
notes: SPINDLY (SPY), Arabidopsis thaliana, At3g11540, full-length with C645S; Crystallised with GDP; residues 848-914 and most of 1-43 are invisible in the structure; also called SPY (in the SPY/GDP complex structure); catalytic SPY; not shown: His6, N-terminal, cleaved; SUMO, N-terminal, cleaved
B6: self-fucosylated SPY (enzyme, Arabidopsis thaliana, UniProt Q96301 1-914, looked up)
chain: MVGLEDDTERERSPVVENGFSNGSRSSSSSAGVLSPSRKVTQGNDTLSYANILRARNKFADALALYEAMLEKDSKNVEAHIGKGICLQTQNKGNLAFDCFSEAIRLDPHNACALTHCGILHKEEGRLVEAAESYQKALMADASYKPAAECLAIVLTDLGTSLKLAGNTQEGIQKYYEALKIDPHYAPAYYNLGVVYSEMMQYDNALSCYEKAALERPMYAEAYCNMGVIYKNRGDLEMAITCYERCLAVSPNFEIAKNNMAIALTDLGTKVKLEGDVTQGVAYYKKALYYNWHYADAMYNLGVAYGEMLKFDMAIVFYELAFHFNPHCAEACNNLGVLYKDRDNLDKAVECYQMALSIKPNFAQSLNNLGVVYTVQGKMDAAASMIEKAILANPTYAEAFNNLGVLYRDAGNITMAIDAYEECLKIDPDSRNAGQNRLLAMNYINEGLDDKLFEAHRDWGWRFTRLHPQYTSWDNLKDPERPITIGYISPDFFTHSVSYFIEAPLTHHDYTKYKVVVYSAVVKADAKTYRFRDKVLKKGGVWKDIYGIDEKKIASMVREDKIDILVELTGHTANNKLGTMACRPAPVQVTWIGYPNTTGLPTVDYRITDSLADPPDTKQKQVEELVRLPDCFLCYTPSPEAGPVCPTPALSNGFVTFGSFNNLAKITPKVLQVWARILCAVPNSRLVVKCKPFCCDSIRQRFLTTLEQLGLESKRVDLLPLILFNHDHMQAYSLMDISLDTFPYAGTTTTCESLYMGVPCVTMAGSVHAHNVGVSLLTKVGLGHLVAKNEDEYVQLSVDLASDVTALSKLRMSLRDLMAGSPVCNGPSFAVGLESAYRNMWKKYCKGEVPSLRRMEMLQKEVHDDPLISKDLGPSRVSVTGEATPSLKANGSAPVPSSLPTQSPQLSKRMDSTS
modifications: O-fucose by self-fucosylation (major sites S21 and S24 by the paper's mutagenesis)
notes: SPINDLY (SPY), Arabidopsis thaliana, At3g11540, self-fucosylated sample run on gel filtration; Fucosylation of the sample was checked by western blotting with biotinylated AAL; also called SPY with fucosylation modification; source: E. coli BL21 (DE3), purified; self-fucosylated sample; not shown: His6, N-terminal, cleaved; SUMO, N-terminal, cleaved

How the values were obtained:
[1] = in vitro fucosylation of DELLA1–205, AAL lectin blot; settings: glycan lost; control: wild type SPY
gel filtration = settings: glycan gained; control: wild type unmodified SPY
[2] = molecular target: the molecule itself; experiment: SEC-MALS; ~500 μg loaded on Superdex 200 increase 10/300 connected to a HELEOS multi-angle light scattering instrument; 20 mM Tris pH 7.9, 300 mM NaCl, 0.5 mM TCEP
[3] = molecular target: the molecule itself; experiment: SEC; Superdex 200 Increase 10/300 GL, 0.5 mL injected; 50 mM Tris pH 7.9, 300 mM NaCl, 0.5 mM TCEP, 2 mM benzamidine; samples incubated at 4 °C for 6 h; peak fractions on SDS-PAGE

| Protein | enzymatic_activity [1] | stoichiometry N [2] | further results |
| --- | --- | --- | --- |
| B1 | no change |  |  |
| B2 | no change |  |  |
| B3 |  |  | oligomerisation (gel filtration): no change |
| B4 |  | 2 |  |
| B5 |  | 2 |  |
| B6 |  |  | stoichiometry N [3]: 2 |

Source: paper PMC9715652, “Structural insights into mechanism and specificity of the plant protein O-fucosyltransferase SPINDLY” (Nature Communications, 2022)
